Results reported in publication PMC7588459 (Scientific Reports, 2020).

These binders were tested against T1, Nipah virus attachment (receptor-binding) glycoprotein (GP), wild type (Nipah virus; strain of the assayed …, UniProt Q9IH62) (assay: ELISA). Settings: both partners purified.
T1 construct: source: HEK 293-F FreeStyle, transiently transfected, purified from supernatant (Ni-NTA)

Binder | Kd [nM]
m102.4 VH K31A (antibody, V domains shown) VH: EVQVIQSGADVKKPGSSVKVSCKSSGGTFSAYAINWVRQAPGQGLEWMGGIIPILGIANYAQKFQGRVTITTDESTSTAYMELSSLRSEDTAVYYCARGWGREQLAPHPSQYYYYYYGMDVWGQGTTVTVSS VL: EIVMTQSPGTLSLAPGERATLSCWASQSVRNNYLAWYQQKPGQAPRLVIYNGSTRATGIPDRFSGSGSGTDFTLTISRLDPEDFAVYYCQQYGNSRRVTFGGGTKVEIK | 0.08
m102.4 VH Y113A (antibody, V domains shown) VH: EVQVIQSGADVKKPGSSVKVSCKSSGGTFSKYAINWVRQAPGQGLEWMGGIIPILGIANYAQKFQGRVTITTDESTSTAYMELSSLRSEDTAVYYCARGWGREQLAPHPSQYAYYYYGMDVWGQGTTVTVSS VL: EIVMTQSPGTLSLAPGERATLSCWASQSVRNNYLAWYQQKPGQAPRLVIYNGSTRATGIPDRFSGSGSGTDFTLTISRLDPEDFAVYYCQQYGNSRRVTFGGGTKVEIK | 0.12
m102.4 VH L55A (antibody, V domains shown) VH: EVQVIQSGADVKKPGSSVKVSCKSSGGTFSKYAINWVRQAPGQGLEWMGGIIPIAGIANYAQKFQGRVTITTDESTSTAYMELSSLRSEDTAVYYCARGWGREQLAPHPSQYYYYYYGMDVWGQGTTVTVSS VL: EIVMTQSPGTLSLAPGERATLSCWASQSVRNNYLAWYQQKPGQAPRLVIYNGSTRATGIPDRFSGSGSGTDFTLTISRLDPEDFAVYYCQQYGNSRRVTFGGGTKVEIK | 0.1
m102.4 VH E103A (antibody, V domains shown) VH: EVQVIQSGADVKKPGSSVKVSCKSSGGTFSKYAINWVRQAPGQGLEWMGGIIPILGIANYAQKFQGRVTITTDESTSTAYMELSSLRSEDTAVYYCARGWGRAQLAPHPSQYYYYYYGMDVWGQGTTVTVSS VL: EIVMTQSPGTLSLAPGERATLSCWASQSVRNNYLAWYQQKPGQAPRLVIYNGSTRATGIPDRFSGSGSGTDFTLTISRLDPEDFAVYYCQQYGNSRRVTFGGGTKVEIK | 1.83
m102.4 VH G56A (antibody, V domains shown) VH: EVQVIQSGADVKKPGSSVKVSCKSSGGTFSKYAINWVRQAPGQGLEWMGGIIPILAIANYAQKFQGRVTITTDESTSTAYMELSSLRSEDTAVYYCARGWGREQLAPHPSQYYYYYYGMDVWGQGTTVTVSS VL: EIVMTQSPGTLSLAPGERATLSCWASQSVRNNYLAWYQQKPGQAPRLVIYNGSTRATGIPDRFSGSGSGTDFTLTISRLDPEDFAVYYCQQYGNSRRVTFGGGTKVEIK | 0.09
m102.4 VH Y112A (antibody, V domains shown) VH: EVQVIQSGADVKKPGSSVKVSCKSSGGTFSKYAINWVRQAPGQGLEWMGGIIPILGIANYAQKFQGRVTITTDESTSTAYMELSSLRSEDTAVYYCARGWGREQLAPHPSQAYYYYYGMDVWGQGTTVTVSS VL: EIVMTQSPGTLSLAPGERATLSCWASQSVRNNYLAWYQQKPGQAPRLVIYNGSTRATGIPDRFSGSGSGTDFTLTISRLDPEDFAVYYCQQYGNSRRVTFGGGTKVEIK | 0.11
m102.4 VH P109A (antibody, V domains shown) VH: EVQVIQSGADVKKPGSSVKVSCKSSGGTFSKYAINWVRQAPGQGLEWMGGIIPILGIANYAQKFQGRVTITTDESTSTAYMELSSLRSEDTAVYYCARGWGREQLAPHASQYYYYYYGMDVWGQGTTVTVSS VL: EIVMTQSPGTLSLAPGERATLSCWASQSVRNNYLAWYQQKPGQAPRLVIYNGSTRATGIPDRFSGSGSGTDFTLTISRLDPEDFAVYYCQQYGNSRRVTFGGGTKVEIK | 0.1
m102.4 VH S110A (antibody, V domains shown) VH: EVQVIQSGADVKKPGSSVKVSCKSSGGTFSKYAINWVRQAPGQGLEWMGGIIPILGIANYAQKFQGRVTITTDESTSTAYMELSSLRSEDTAVYYCARGWGREQLAPHPAQYYYYYYGMDVWGQGTTVTVSS VL: EIVMTQSPGTLSLAPGERATLSCWASQSVRNNYLAWYQQKPGQAPRLVIYNGSTRATGIPDRFSGSGSGTDFTLTISRLDPEDFAVYYCQQYGNSRRVTFGGGTKVEIK | 0.13
m102.4 VH L105A (antibody, V domains shown) VH: EVQVIQSGADVKKPGSSVKVSCKSSGGTFSKYAINWVRQAPGQGLEWMGGIIPILGIANYAQKFQGRVTITTDESTSTAYMELSSLRSEDTAVYYCARGWGREQAAPHPSQYYYYYYGMDVWGQGTTVTVSS VL: EIVMTQSPGTLSLAPGERATLSCWASQSVRNNYLAWYQQKPGQAPRLVIYNGSTRATGIPDRFSGSGSGTDFTLTISRLDPEDFAVYYCQQYGNSRRVTFGGGTKVEIK | 0.1
m102.4 VH I54A (antibody, V domains shown) VH: EVQVIQSGADVKKPGSSVKVSCKSSGGTFSKYAINWVRQAPGQGLEWMGGIIPALGIANYAQKFQGRVTITTDESTSTAYMELSSLRSEDTAVYYCARGWGREQLAPHPSQYYYYYYGMDVWGQGTTVTVSS VL: EIVMTQSPGTLSLAPGERATLSCWASQSVRNNYLAWYQQKPGQAPRLVIYNGSTRATGIPDRFSGSGSGTDFTLTISRLDPEDFAVYYCQQYGNSRRVTFGGGTKVEIK | 0.13
m102.4 VH Q104A (antibody, V domains shown) VH: EVQVIQSGADVKKPGSSVKVSCKSSGGTFSKYAINWVRQAPGQGLEWMGGIIPILGIANYAQKFQGRVTITTDESTSTAYMELSSLRSEDTAVYYCARGWGREALAPHPSQYYYYYYGMDVWGQGTTVTVSS VL: EIVMTQSPGTLSLAPGERATLSCWASQSVRNNYLAWYQQKPGQAPRLVIYNGSTRATGIPDRFSGSGSGTDFTLTISRLDPEDFAVYYCQQYGNSRRVTFGGGTKVEIK | 0.1
m102.4 VH A106W (antibody, V domains shown) VH: EVQVIQSGADVKKPGSSVKVSCKSSGGTFSKYAINWVRQAPGQGLEWMGGIIPILGIANYAQKFQGRVTITTDESTSTAYMELSSLRSEDTAVYYCARGWGREQLWPHPSQYYYYYYGMDVWGQGTTVTVSS VL: EIVMTQSPGTLSLAPGERATLSCWASQSVRNNYLAWYQQKPGQAPRLVIYNGSTRATGIPDRFSGSGSGTDFTLTISRLDPEDFAVYYCQQYGNSRRVTFGGGTKVEIK | 4.95
m102.4 VH Q111A (antibody, V domains shown) VH: EVQVIQSGADVKKPGSSVKVSCKSSGGTFSKYAINWVRQAPGQGLEWMGGIIPILGIANYAQKFQGRVTITTDESTSTAYMELSSLRSEDTAVYYCARGWGREQLAPHPSAYYYYYYGMDVWGQGTTVTVSS VL: EIVMTQSPGTLSLAPGERATLSCWASQSVRNNYLAWYQQKPGQAPRLVIYNGSTRATGIPDRFSGSGSGTDFTLTISRLDPEDFAVYYCQQYGNSRRVTFGGGTKVEIK | 0.08
m102.4 VH Y114A (antibody, V domains shown) VH: EVQVIQSGADVKKPGSSVKVSCKSSGGTFSKYAINWVRQAPGQGLEWMGGIIPILGIANYAQKFQGRVTITTDESTSTAYMELSSLRSEDTAVYYCARGWGREQLAPHPSQYYAYYYGMDVWGQGTTVTVSS VL: EIVMTQSPGTLSLAPGERATLSCWASQSVRNNYLAWYQQKPGQAPRLVIYNGSTRATGIPDRFSGSGSGTDFTLTISRLDPEDFAVYYCQQYGNSRRVTFGGGTKVEIK | 0.07
m102.4 VH P107A (antibody, V domains shown) VH: EVQVIQSGADVKKPGSSVKVSCKSSGGTFSKYAINWVRQAPGQGLEWMGGIIPILGIANYAQKFQGRVTITTDESTSTAYMELSSLRSEDTAVYYCARGWGREQLAAHPSQYYYYYYGMDVWGQGTTVTVSS VL: EIVMTQSPGTLSLAPGERATLSCWASQSVRNNYLAWYQQKPGQAPRLVIYNGSTRATGIPDRFSGSGSGTDFTLTISRLDPEDFAVYYCQQYGNSRRVTFGGGTKVEIK | 0.09
m102.4 VH I57A (antibody, V domains shown) VH: EVQVIQSGADVKKPGSSVKVSCKSSGGTFSKYAINWVRQAPGQGLEWMGGIIPILGAANYAQKFQGRVTITTDESTSTAYMELSSLRSEDTAVYYCARGWGREQLAPHPSQYYYYYYGMDVWGQGTTVTVSS VL: EIVMTQSPGTLSLAPGERATLSCWASQSVRNNYLAWYQQKPGQAPRLVIYNGSTRATGIPDRFSGSGSGTDFTLTISRLDPEDFAVYYCQQYGNSRRVTFGGGTKVEIK | 0.1
m102.4 VH R102A (antibody, V domains shown) VH: EVQVIQSGADVKKPGSSVKVSCKSSGGTFSKYAINWVRQAPGQGLEWMGGIIPILGIANYAQKFQGRVTITTDESTSTAYMELSSLRSEDTAVYYCARGWGAEQLAPHPSQYYYYYYGMDVWGQGTTVTVSS VL: EIVMTQSPGTLSLAPGERATLSCWASQSVRNNYLAWYQQKPGQAPRLVIYNGSTRATGIPDRFSGSGSGTDFTLTISRLDPEDFAVYYCQQYGNSRRVTFGGGTKVEIK | 0.09
m102.4 VL R30A (antibody, V domains shown, also called LC:R30 to alanine) VH: EVQVIQSGADVKKPGSSVKVSCKSSGGTFSKYAINWVRQAPGQGLEWMGGIIPILGIANYAQKFQGRVTITTDESTSTAYMELSSLRSEDTAVYYCARGWGREQLAPHPSQYYYYYYGMDVWGQGTTVTVSS VL: EIVMTQSPGTLSLAPGERATLSCWASQSVANNYLAWYQQKPGQAPRLVIYNGSTRATGIPDRFSGSGSGTDFTLTISRLDPEDFAVYYCQQYGNSRRVTFGGGTKVEIK | 0.13
m102.4 VH H108A (antibody, V domains shown) VH: EVQVIQSGADVKKPGSSVKVSCKSSGGTFSKYAINWVRQAPGQGLEWMGGIIPILGIANYAQKFQGRVTITTDESTSTAYMELSSLRSEDTAVYYCARGWGREQLAPAPSQYYYYYYGMDVWGQGTTVTVSS VL: EIVMTQSPGTLSLAPGERATLSCWASQSVRNNYLAWYQQKPGQAPRLVIYNGSTRATGIPDRFSGSGSGTDFTLTISRLDPEDFAVYYCQQYGNSRRVTFGGGTKVEIK | 0.09
